17 molecules from US20220064286A1 (Genentech, published 2022) can be followed below.

For experiment [1], the target named is cynomolgus monkey (cyno) TIGIT protein (cynomolgus monkey, UniProt A0A7N9I9V4 89-209). The experiment in a line: SPR, captured mAb. How it is done: (§1) Briefly, a series S CM5 biosensor chip was activated with N-ethyl-N′-(3-dimethylaminopropyl)-carbodiimide hydrochloride (EDC) and N-hydroxysuccinimide (NHS) reagents according to the supplier's (GE Healthcare Biosciences, Piscataway, N.J.) instructions, and a human antibody capture kit was applied to couple goat anti-human Fc IgGs in order to achieve approximately 10,000 response units (RU) on each flow cell, followed by blocking un-reacted groups with 1M ethanolamine.
(§2) (flow rate: 30 μl/min) with no regeneration between injections. The sensorgrams were recorded and evaluated by BIAcore™ T200 Evaluation Software (version 2.0) after subtraction of reference cell signal. Association rates (kₒₙ) and dissociation rates (koff) were calculated using a simple one-to-one Langmuir binding model. The equilibrium dissociation constant (KD) was calculated as the ratio koff/kₒₙ.
(§3) The first humanized versions, h6B2, L1H1, h10A5.L1H1, h7E7, L1H1, and h15C8.L1H1, which contain both rat CDRs and framework residues at Vernier positions, and the fully humanized versions, h6B2.L2H5, h10A5.L4H4, h7E7.L5H9, and h15C8.L5H9, which contain only rat CDRs were subject to BIAcore affinity measurement by comparison with original rat antibodies, rat6B2, rat10A5, rat7E7 and rat 15C8. For binding affinity determinations of TIGIT antibodies against human TIGIT, cynomolgus monkey TIGIT and human alanine-scanned TIGIT mutants by single-cycle kinetics, Surface Plasmon Resonance (SRP) measurement with a BIACORE™-T200 instrument was used, as described above.
Background: SPR reads the build-up and loss of mass on a sensor chip optically.

The target of experiment [2] is T1, human TIGIT protein (human, UniProt Q495A1 22-141, limits assumed).
T1 construct: Recombinant protein (Genentech) used in ELISA screening and as SPR analyte; also called TIGIT antigen
T1 sequence: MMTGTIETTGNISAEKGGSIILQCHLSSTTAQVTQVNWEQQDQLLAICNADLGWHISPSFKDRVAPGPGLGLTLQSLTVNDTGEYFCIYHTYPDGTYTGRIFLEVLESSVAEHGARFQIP
The experiment in a line: SPR, captured mAb. How it is done:
as §1, §2, §3

Substitutions are numbered along the chain they refer to. In names and notes the source's numbering stands.

Chain of cynomolgus monkey (cyno) TIGIT protein (A0A7N9I9V4 entry or part of it): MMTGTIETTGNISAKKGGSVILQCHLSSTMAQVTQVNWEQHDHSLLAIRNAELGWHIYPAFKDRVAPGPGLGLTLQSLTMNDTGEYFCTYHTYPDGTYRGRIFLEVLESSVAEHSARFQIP

B1: h7E7.L1H3 (antibody, V domains shown)
VH: EVQLVQSGAEVKKPGASVKVSCKASGYTFTEYSIYWVRQAPGQRLEIMGRIDPKNGRTYYVDKFKNRATLTADTSASTAYMELSSLRSEDTAVYFCTRIYGFYFDFWGQGTLVTVSS
VL: DIQLTQSPSFLSASVGDRVTITCKGSQNVNKYLVWYQQKPGKAPKLLIYNTDNLQSGIPSRFSGSGSGTEYTLTISSLQPEDFATYFCYQYNNGFTFGQGTKVEIK
notes: VH: I48M against h7E7.L1H1; FR/HVR pieces
Broadly, the Kd is a measure of binding affinity in units of concentration. Broadly, the koff is the rate constant with which the complex falls apart. What is called kon is a measure of how fast the partners come together. As to B1, in experiment [1], binding was put at a Kd of 0.42 nM, the off-rate (koff) was found to be 0.000381 s⁻¹ and the kon was 908000 M⁻¹ s⁻¹. In experiment [2], this molecule gave a Kd of 0.38 nM, a koff of 0.00107 s⁻¹ and a kon of 2.82e+06 M⁻¹ s⁻¹.

B2: h15C8.L1H6 (antibody, V domains shown)
VH: B1 VH with Y32H, V37L, M48I, Y60F, L70I, A72T, T97A, Y100D
VL: B1 VL with N50S
notes: VH: L69I (printed L691) against h15C8.L1H1; FR/HVR pieces
In the case of B2, in experiment [1], the equilibrium dissociation constant (Kd) was 0.84 nM, the off-rate (koff) was determined as 0.000556 s⁻¹ and the kon worked out at 663000 M⁻¹ s⁻¹. Further, in experiment [2], the equilibrium dissociation constant (Kd) was found to be 0.55 nM, the koff is 0.000756 s⁻¹ and the kon stood at 1.38e+06 M⁻¹ s⁻¹.

B3: h15C8.L1H7 (antibody, V domains shown)
VH: B1 VH with Y32H, V37L, M48I, Y60F, A72R, T97A, Y100D
VL: B1 VL with N50S
notes: VH: T71R against h15C8.L1H1; FR/HVR pieces
In experiment [1], B3 showed a Kd of 0.94 nM, a koff of 0.000206 s⁻¹ and an on-rate constant (kon) of 219000 M⁻¹ s⁻¹. For the same molecule, in experiment [2], the Kd came to 0.98 nM, the dissociation rate constant (koff) turned out to be 0.000597 s⁻¹ and the kon is 610000 M⁻¹ s⁻¹.

B4: h15C8.L2H1 (antibody, V domains shown)
VH: B1 VH with Y32H, V37L, M48I, Y60F, A72T, T97A, Y100D
VL: B1 VL with N50S, I58V
notes: VL: I58V against h15C8.L1H1; FR/HVR pieces
As to B4, in experiment [1], the Kd worked out at 1 nM, the off-rate (koff) was 0.000502 s⁻¹ and the association rate constant (kon) amounted to 502000 M⁻¹ s⁻¹. Further, in experiment [2], the Kd worked out at 0.66 nM, the off-rate (koff) amounted to 0.000506 s⁻¹ and the kon worked out at 771000 M⁻¹ s⁻¹.

B5: h15C8.L1H2 (antibody, V domains shown)
VH: B1 VH with Y32H, M48I, Y60F, A72T, T97A, Y100D
VL: B1 VL with N50S
notes: VH: L37V against h15C8.L1H1; FR/HVR pieces
In experiment [1], B5 showed a dissociation constant (Kd) of 2.1 nM, a koff of 0.000806 s⁻¹ and a kon of 382000 M⁻¹ s⁻¹. In experiment [2], this molecule came in with an equilibrium dissociation constant (Kd) of 1.03 nM, an off-rate constant (koff) of 0.00107 s⁻¹ and a kon of 1.04e+06 M⁻¹ s⁻¹.

B6: h7E7.L5H1 (antibody, V domains shown)
VH: B1 VH with M48I
VL: B1 VL with I58V, Y71F, F87Y
notes: VL: I58V, Y71F, F87Y against h7E7.L1H1; FR/HVR pieces
In experiment [1], B6 had a Kd of 0.56 nM, an off-rate constant (koff) of 0.000324 s⁻¹ and an association rate constant (kon) of 575000 M⁻¹ s⁻¹. In experiment [2], this molecule gave a Kd of 0.32 nM, a dissociation rate constant (koff) of 0.00104 s⁻¹ and a kon of 3.21e+06 M⁻¹ s⁻¹.

B7: h7E7.L1H7 (antibody, V domains shown)
VH: B1 VH with M48I, F95Y
VL: B1 VL
notes: VH: F91Y against h7E7.L1H1; FR/HVR pieces
On to B7, for which, in experiment [1], the affinity, expressed as Kd, was 0.43 nM; the off-rate (koff) is 0.000286 s⁻¹; the kon is 664000 M⁻¹ s⁻¹. In experiment [2], this molecule had an equilibrium dissociation constant (Kd) of 0.31 nM, an off-rate (koff) of 0.000849 s⁻¹ and a kon of 2.74e+06 M⁻¹ s⁻¹.

B8: h15C8.L1H4 (antibody, V domains shown)
VH: B1 VH with Y32H, V37L, Y60F, A72T, T97A, Y100D
VL: B1 VL with N50S
notes: VH: I48M against h15C8.L1H1; FR/HVR pieces
In experiment [1], B8 registered a Kd of 1.05 nM, an off-rate constant (koff) of 0.000558 s⁻¹ and a kon of 532000 M⁻¹ s⁻¹. In experiment [2], this molecule showed a Kd of 0.59 nM, a koff of 0.000498 s⁻¹ and a kon of 841000 M⁻¹ s⁻¹.

B9: h7E7.L3H1 (antibody, V domains shown)
VH: B1 VH with M48I
VL: B1 VL with Y71F
notes: VL: Y71F against h7E7.L1H1; FR/HVR pieces
On to B9, for which, in experiment [1], binding was put at a Kd of 0.95 nM, the koff amounted to 0.00122 s⁻¹ and the on-rate (kon) was 1.28e+06 M⁻¹ s⁻¹. In experiment [2], this molecule had a dissociation constant Kd of 0.24 nM, a dissociation rate constant (koff) of 0.000218 s⁻¹ and a kon of 920000 M⁻¹ s⁻¹.

B10: h15C8.L1H8 (antibody, V domains shown)
VH: B1 VH with Y32H, V37L, M48I, Y60F, A72T, F95Y, T97A, Y100D
VL: B1 VL with N50S
notes: VH: F91Y against h15C8.L1H1; FR/HVR pieces
In experiment [1], B10 returned a Kd of 0.41 nM, an off-rate (koff) of 0.000119 s⁻¹ and an association rate constant (kon) of 291000 M⁻¹ s⁻¹. In experiment [2], the Kd amounted to 0.61 nM, the koff worked out at 0.000381 s⁻¹ and the on-rate (kon) was determined as 620000 M⁻¹ s⁻¹.

B11: h7E7.L2H1 (antibody, V domains shown)
VH: B1 VH with M48I
VL: B1 VL with I58V
notes: VL: I58V against h7E7.L1H1; FR/HVR pieces
Regarding B11, in experiment [1], the equilibrium dissociation constant (Kd) stood at 0.36 nM, the koff is 0.000179 s⁻¹ and the association rate constant (kon) was found to be 493000 M⁻¹ s⁻¹. For the same molecule, in experiment [2], the dissociation constant (Kd) was determined as 0.24 nM, the dissociation rate constant (koff) turned out to be 0.000504 s⁻¹ and the on-rate constant (kon) is 2.06e+06 M⁻¹ s⁻¹.

B12: h7E7.L1H6 (antibody, V domains shown)
VH: B1 VH with M48I, A72R
VL: B1 VL
notes: VH: A71R against h7E7.L1H1; FR/HVR pieces
As to B12, in experiment [1], the dissociation constant Kd was determined as 0.44 nM, the koff came to 0.000284 s⁻¹ and the kon is 641000 M⁻¹ s⁻¹. For the same molecule, in experiment [2], the Kd is 0.35 nM, the koff turned out to be 0.000648 s⁻¹ and the association rate constant (kon) stood at 1.85e+06 M⁻¹ s⁻¹.

B13: h7E7.L1H4 (antibody, V domains shown)
VH: B1 VH with M48I, A68V
VL: B1 VL
notes: VH: A67V against h7E7.L1H1; FR/HVR pieces
Turning to B13, in experiment [1], binding was put at a Kd of 0.4 nM, the off-rate (koff) came out at 0.000243 s⁻¹ and the kon stood at 601000 M⁻¹ s⁻¹. For the same molecule, in experiment [2], the affinity, expressed as Kd, was 0.27 nM; the koff was 0.000749 s⁻¹; the on-rate constant (kon) came out at 2.79e+06 M⁻¹ s⁻¹.

B14: h7E7.L1H5 (antibody, V domains shown)
VH: B1 VH with M48I, L70I
VL: B1 VL
notes: VH: L69I (printed L691) against h7E7.L1H1; FR/HVR pieces
With B14, in experiment [1], the Kd was 0.4 nM, the koff is 0.000359 s⁻¹ and the on-rate constant (kon) worked out at 898000 M⁻¹ s⁻¹. In addition, in experiment [2], the equilibrium dissociation constant (Kd) amounted to 0.4 nM, the koff came to 0.00129 s⁻¹ and the association rate constant (kon) amounted to 3.24e+06 M⁻¹ s⁻¹.

B15: h15C8.L1H5 (antibody, V domains shown)
VH: B1 VH with Y32H, V37L, M48I, Y60F, A68V, A72T, T97A, Y100D
VL: B1 VL with N50S
notes: VH: A67V against h15C8.L1H1; FR/HVR pieces
Consider B15, for which, in experiment [1], the dissociation constant Kd is 1.15 nM, the koff is 0.000558 s⁻¹ and the association rate constant (kon) was found to be 484000 M⁻¹ s⁻¹. In experiment [2], this molecule registered a Kd of 0.71 nM, an off-rate constant (koff) of 0.000567 s⁻¹ and an on-rate constant (kon) of 798000 M⁻¹ s⁻¹.

B16: h7E7.L4H1 (antibody, V domains shown)
VH: B1 VH with M48I
VL: B1 VL with F87Y
notes: VL: F87Y against h7E7.L1H1; FR/HVR pieces
B16: in experiment [1], binding was characterised by a dissociation constant (Kd) of 0.44 nM, the koff amounted to 0.000274 s⁻¹ and the kon came out at 629000 M⁻¹ s⁻¹. In experiment [2], the equilibrium dissociation constant (Kd) turned out to be 0.27 nM, the koff stood at 0.000796 s⁻¹ and the association rate constant (kon) stood at 2.95e+06 M⁻¹ s⁻¹.

B17: h7E7.L1H8 (antibody, V domains shown)
VH: B1 VH with M48I, T97A
VL: B1 VL
notes: VH: T93A against h7E7.L1H1; FR/HVR pieces
As for B17, in experiment [1], the Kd came to 0.39 nM, the koff was 0.000331 s⁻¹ and the kon was 845000 M⁻¹ s⁻¹. In experiment [2], this molecule gave a dissociation constant (Kd) of 0.36 nM, a dissociation rate constant (koff) of 0.00101 s⁻¹ and a kon of 2.78e+06 M⁻¹ s⁻¹.
